Results published in the supplement of paper PMC7125110.
This sample holds only a part of the variants without activity.

B1: glmS ribozyme (parent)
chain: AUAAAAGCGCCAGAACUACAGAAAUGUAGUUGACGAGGAGGAGGUUUAUCGAAUUUUCGGCGGAUGCCUCCAAA

Legend:
Details in all cases: with glucosamine-6-phosphate
glucosamine-6-phosphate [1] = variants of: B1; assay: self-cleavage kobs at 40 uM GlcN6P; higher = faster cleavage; RNA array
Procedure, shortened: (§1)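 The measurements used barcoded ribozyme variants on sequenced MiSeq chips, transcribed in situ by E. coli RNA polymerase and tracked at 37 °C with a hybridised Cy3 probe. Glucosamine-6-phosphate, 40 μM to 10 mM in HEPES/KCl/Mg(OAc)2 buffer, was flowed in while tiles were imaged over ~14 h. Baseline-normalised signals, also normalised to non-cleaving reference variants, gave per-tile medians that were fit to one- or two-exponential decays for kobs. kcat and KM resulted from weighted Michaelis–Menten fits across concentrations.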

glucosamine-6-phosphate [2] = variants of: B1; assay: self-cleavage kobs at 160 uM GlcN6P; higher = faster cleavage; RNA array
Procedure, shortened: as §1

glucosamine-6-phosphate [3] = variants of: B1; assay: self-cleavage kobs at 10000 uM GlcN6P; higher = faster cleavage; RNA array
Procedure, shortened: as §1

glucosamine-6-phosphate [4] = variants of: B1; assay: self-cleavage kobs at 640 uM GlcN6P; higher = faster cleavage; RNA array
Procedure, shortened: as §1

glucosamine-6-phosphate [5] = variants of: B1; assay: self-cleavage kobs at 2500 uM GlcN6P; higher = faster cleavage; RNA array
Procedure, shortened: as §1

| Variant | self-cleavage kobs at 40 uM GlcN6P (glucosamine-6-phosphate [1]) | self-cleavage kobs at 160 uM GlcN6P (glucosamine-6-phosphate [2]) | self-cleavage kobs at 10000 uM GlcN6P (glucosamine-6-phosphate [3]) | self-cleavage kobs at 640 uM GlcN6P (glucosamine-6-phosphate [4]) | self-cleavage kobs at 2500 uM GlcN6P (glucosamine-6-phosphate [5]) |
| --- | --- | --- | --- | --- | --- |
| AUAAAAGCGCCAGAACUACAGAAAUGUAGUUGACGAGGAUGAGGUUUAUCGAAUUUUCGGCGGUUGCCUCCAAA | < 1e-05 s⁻¹ | < 1e-05 s⁻¹ | – | – | – |
| AUAAAAGCGCCAGAACUACAGAAAUGUAGUUGACGAGGAUGAGGUUUAUCUAAUUUUCGGCAGAUGCUUCCAAA | < 1e-05 s⁻¹ | – | < 1e-05 s⁻¹ | – | – |
| AUAAAAGCGCCAGAACUACAGAAAUGUAGUUGACGAGGACGAGAUUUAUCGAAUUUUCGGCGGAUGCCUCCAAA | < 1e-05 s⁻¹ | < 1e-05 s⁻¹ | – | < 1e-05 s⁻¹ | < 1e-05 s⁻¹ |
| AUAAAAGCGCCAGAACUACAGAAAUGUAGUUGACGAGGAUGAGGUUUAUCGAAUUUUCGGCGGAUGUCUACAAA | < 1e-05 s⁻¹ | – | – | – | – |
| AUAAAAGCGCCAGAACUACAGAAAUGUAGUUGACGAGGACGAGGUUAAUCGAAUUUUCGGUGGAUGCCUCCAAA | < 1e-05 s⁻¹ | – | – | – | – |
| AUAAAAGCGCCAGAACUACAGAAAUGUAGUUGACGAGGAUGAGAUUUAUCGAAUUUUCGGCGGAUGCCUCCAAA | < 1e-05 s⁻¹ | < 1e-05 s⁻¹ | < 1e-05 s⁻¹ | – | – |
| AUAAAAGCGCCAGAACUACAGAAAUGUAGUUGACGAGGAUGAGGUUUAUCAAAUUUUCGGCGGAUGCCUCCAAA | < 1e-05 s⁻¹ | – | < 1e-05 s⁻¹ | < 1e-05 s⁻¹ | < 1e-05 s⁻¹ |
| AUAAAAGCGCCAGAACUACAGAAAUGUAGUUGACGAGGAUGAGGUUUAUCGAAUUCUCCGCGGAUGCCUCCAAA | < 1e-05 s⁻¹ | – | < 1e-05 s⁻¹ | – | – |
| AUAAAAGCGCCAGAACUACAGAAAUGUAGUUGACGAGGAUGAGGUUUAUCGAAUUGUCGGCCGAUGGCUCCAAA | < 1e-05 s⁻¹ | – | – | – | – |
| AUAAAAGCGCCAGAACUACAGAAAUGUAGUUGACGAGGAUGAGGUUUGUCGAAUUUUCUGCGGAUGCCUCCAAA | < 1e-05 s⁻¹ | < 1e-05 s⁻¹ | < 1e-05 s⁻¹ | – | < 1e-05 s⁻¹ |
| AUAAAAGCGCCAGAACUACAGAAAUGUAGUUGACGAGGAUGAGGUUUAUCGAAUUUUCUGCGGAUGCCCCUAAA | < 1e-05 s⁻¹ | – | – | – | < 1e-05 s⁻¹ |
| AUAAAAGCGCCAGAACUACAGAAAUGUAGUUGACGAGGACGAGGUUUAUCGAAUUAUCGGCCGAUGCCUCCAAA | < 1e-05 s⁻¹ | – | – | – | < 1e-05 s⁻¹ |
| AUAAAAGCGCCAGAACUACAGAAAUGUAGUUGACGAGGAGAAGGUUUAUCGAAUUUUCGGUGGAUGCCUCCAAA | < 1e-05 s⁻¹ | < 1e-05 s⁻¹ | < 1e-05 s⁻¹ | < 1e-05 s⁻¹ | – |
| AUAAAAGCGCCAGAACUACAGAAAUGUAGUUGACGAGGAGAAGGUUUAUCGGAUUUUCAGCGGAUGCCUCCAAA | < 1e-05 s⁻¹ | < 1e-05 s⁻¹ | – | < 1e-05 s⁻¹ | – |
| AUAAAAGCGCCAGAACUACAGAAAUGUAGUUGACGAGGAUGAGGUUUAUCGAAUUUUCCUCGGAUGCCUGCAAA | < 1e-05 s⁻¹ | – | < 1e-05 s⁻¹ | – | – |
